Assay results: patent CN109384844A (INST OF BASIC MEDICAL SCIENCES THE ACADEMY OF MILITARY …, dated 2019)

Experiments:
Hla蛋白 [1] = target: T1, Hla蛋白 (Staphylococcus aureus)
Hla蛋白 [2] = target: T1, Hla蛋白; remark: listed apart in the source

T1 sequence (Q2G1X0 27-319 limits assumed): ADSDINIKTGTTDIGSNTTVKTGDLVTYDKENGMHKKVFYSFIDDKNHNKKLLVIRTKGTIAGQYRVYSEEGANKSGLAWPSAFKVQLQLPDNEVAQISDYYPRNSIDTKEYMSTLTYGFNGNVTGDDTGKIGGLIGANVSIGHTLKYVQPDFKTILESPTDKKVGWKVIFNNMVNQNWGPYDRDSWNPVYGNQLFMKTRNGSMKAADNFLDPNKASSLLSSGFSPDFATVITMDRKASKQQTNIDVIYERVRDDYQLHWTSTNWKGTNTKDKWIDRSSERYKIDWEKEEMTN

B1: AAH-1抗体 (antibody, V domains shown)
VH: QMQLVQSGAEIRRPGSLVKVSCQASGGSFKNFALNWVRQAPGLGLQWMGSITPFLNVPTYAQQFQGRVTMSTDTSTSTAYMVLRRLTSDDTAVYYCARGNSLLDYWGQGTLVTVSS
VL: EIVLTQSPATLSVSPGDGATLSCRASQSVSGNLAWYQKKPGQAPRLLIYDTSIRAAGVPPRFSGSGSGTEFTLTISSLQSEDFAVYYCQQYHNLPPLTFGPGTKLEIK
For B1, the Kd (Hla蛋白 [1]) was 1.92 nM, the koff (Hla蛋白 [1]) was 0.000255 s⁻¹ and the kon (Hla蛋白 [1]) was 133000 M⁻¹ s⁻¹. For the same binder, the EC50 (Hla蛋白 [2]) was 0.075 µg/mL.
